Measurements: patent US20250092124A1 (YUNNAN BAIYAO GROUP, published 2025)
Where two headings read alike, the source gives them in different places.

T1: GDF15-HIS (ACROBiosystems, CAT #: GD5-H5149) (human, UniProt Q99988 197-308)
T1 construct: Bought protein; also called GDF15 (ACROBiosystems, GD5-H5149); human GDF15; not shown: His tag
T1 sequence (looked up): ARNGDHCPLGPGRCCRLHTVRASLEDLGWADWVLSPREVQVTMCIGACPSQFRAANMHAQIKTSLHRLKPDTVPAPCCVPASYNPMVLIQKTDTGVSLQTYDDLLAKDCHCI

T2: fusion protein comprising the extracellular region of monkey GDF15 protein and human IgG1-FC (monkey (cyno); human, UniProt G7PWZ3 197-308, limits assumed)
T2 construct: extracellular domain; also called cynoGDF15
T2 sequence (looked up): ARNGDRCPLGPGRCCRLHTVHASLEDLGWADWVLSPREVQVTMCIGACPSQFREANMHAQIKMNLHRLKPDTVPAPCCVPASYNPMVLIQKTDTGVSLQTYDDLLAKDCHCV

T3: GDF15-mFC protein (human; mouse, UniProt Q99988 197-308)
T3 construct: extracellular domain;domain: IgG2a-FC; also called GDF15-mFc fusion protein
T3 sequence (looked up): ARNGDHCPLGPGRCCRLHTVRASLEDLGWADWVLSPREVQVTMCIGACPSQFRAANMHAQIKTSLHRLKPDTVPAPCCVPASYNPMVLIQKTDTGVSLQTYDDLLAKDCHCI

T4: fusion protein comprising the extracellular region of human GDF15 protein and human IgG1-FC (human, UniProt Q99988 197-308, limits assumed)
T4 construct: extracellular domain
T4 sequence (looked up): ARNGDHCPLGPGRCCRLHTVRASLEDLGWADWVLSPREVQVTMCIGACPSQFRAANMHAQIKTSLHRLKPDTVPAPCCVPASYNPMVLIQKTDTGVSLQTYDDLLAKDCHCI

T5: cynoGDF15-mFC (monkey (cyno); mouse, UniProt G7PWZ3 197-308)
T5 construct: also called monkey GDF15 (cynoGDF15)
T5 sequence (looked up): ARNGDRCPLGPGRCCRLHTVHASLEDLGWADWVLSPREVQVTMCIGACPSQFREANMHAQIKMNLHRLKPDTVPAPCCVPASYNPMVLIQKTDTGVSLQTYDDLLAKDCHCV


Legend:
[1] = target: T1, GDF15-HIS (ACROBiosystems, CAT #: …); test: BLI (ForteBio Octet), antibody immobilised, GDF15 200-6.25 nM
[2] = target: T2, fusion protein comprising the …; test: ELISA, monkey GDF15-hIgG1 Fc coated, HRP anti-mouse IgG
Method: (§1) The antibodies to be tested (purified antibodies from hybridoma, see Table 1), positive control antibody AV380-mIgG1 (its sequence is from Aveo Oncology; see SEQ ID NO. 1 and SEQ ID NO. 2 for its heavy chain and light chain variable regions, respectively; see SEQ ID NO. 3 and SEQ ID NO. 4 for its heavy chain and light chain constant regions, respectively) and blank control (PBS) were added to the wells. […] The wells were incubated at 37° C. for 1 hour, washed, and dried via tapping. Then the enzyme-labeled secondary antibody, horseradish peroxidase-labeled goat anti-mouse IgG (SIGMA, catalog number A9044-2 ml) was added to each well, at a dilution of 1:10000, 100 μl/well. The wells were incubated at 37° C. for 2 hours, washed, and dried via tapping. 100 μl of freshly prepared developing solution TMB was added to each well and incubated at 37° C. for 30 minutes.
(§2) The experiment was performed as detailed in Example 2, except that the fusion protein in Example 2 was replaced with a fusion protein comprising the extracellular region of monkey GDF15 protein (Genbank accession number EHH29815.1) and human IgG1-FC (Genbank accession number CAC20454.1). The results were shown in Table 2-1, Table 2-2 and FIGS. 2-1 and 2-2.

GDF15-mFC protein [3] = target: T3, GDF15-mFC protein; test: blocking ELISA, GFRAL-hIgG1 Fc coated (competitor), GDF15-mFC 20 ng/well mixed with antibody
Method: (§3) A fusion protein comprising the extracellular region of GFRAL protein (Genbank accession number NM_207410.2) and human IgG1-FC (Genbank accession number CAC20454.1) was diluted to 1 g/ml with coating solution, followed by adding to ELISA plate at 50 μl/well and incubating at 4° C. overnight. The solution in the wells was discarded and the plate was washed 3 times with washing solution, each time for 3-5 minutes, and dried via tapping. 200 μl of blocking solution was added to each well followed by incubating at 4° C. overnight. The plate was washed 3 times with washing solution, and the coated plate may be stored at −20° C. or 4° C. for future use.
(§4) The antibodies to be tested, positive control antibody AV380-mIgG1 and blank control (PBS) were added to the wells. […] At the same time, GDF15-mFC protein (GDF15: Genbank accession number NM_004864.3; mFC: Genbank accession number AAH31470.1) was added at 20 ng/well and mixed with the antibodies to be tested. The wells were incubated at 37° C. for 1 hour, washed, and dried via tapping. Then the enzyme-labeled secondary antibody, horseradish peroxidase-labeled goat anti-mouse IgG (SIGMA, catalog number A9044-2 ml) was added to each well, at a dilution of 1:10000, 50-100 μl/well. The wells were incubated at 37° C. for 2 hours, washed, and dried via tapping. 100 μl of freshly prepared developing solution TMB was added to each well and incubated at 37° C. for 30 minutes. 2 mol/L H₂SO₄ was added to terminate the reaction, and the OD value was obtained on an enzyme-linked immunosorbent reader.

[4] = target: T4, fusion protein comprising the …; test: ELISA, human GDF15-hIgG1 Fc coated, HRP anti-mouse IgG
Method: as §3, with “human GDF15” for “GFRAL”, “NM_004864.3)” for “NM_207410.2)”, “[…]” for “g/ml”, “by” for “via”, “and incubated” for “followed by incubating”
as §1
(§5) 2 mol/L H₂SO₄ was added to terminate the reaction, and the OD values were read on enzyme-linked immunosorbent reader. The results were shown in Table 1-1, Table 1-2 and FIGS. 1-1 and 1-2.

GDF15-mFC protein [5] = target: T3, GDF15-mFC protein; test: blocking ELISA, GFRAL-hIgG1 Fc coated (competitor), GDF15-mFC 20 ng/well mixed with antibody; remark: listed apart in the source
Method: as §3, §4

[6] = target: T4, fusion protein comprising the …; test: ELISA, human GDF15-hIgG1 Fc coated, HRP anti-mouse IgG; remark: listed apart in the source
Method: as §3, with “human GDF15” for “GFRAL”, “NM_004864.3)” for “NM_207410.2)”, “[…]” for “g/ml”, “by” for “via”, “and incubated” for “followed by incubating”
as §1, §5

[7] = target: T2, fusion protein comprising the …; test: ELISA, monkey GDF15-hIgG1 Fc coated, HRP anti-mouse IgG; remark: listed apart in the source
Method: as §1, §2

cynoGDF15-mFC = target: T5, cynoGDF15-mFC; test: ELISA, cynoGDF15-mFC coated
Method: The experiment was performed as detailed in Example 2, except that the coating protein was cynoGDF15-mFC (GDF15: Genbank accession number EHH29815.1; mFC: Genbank accession number AAH31470.1), and the antibodies to be tested (the humanized antibodies), negative control antibody (hIgG1), and positive control antibodies Ponsegromab and AV380-hIgG1 were added to each well of the coated plate.

Binder | Kd [1] [pM] | koff [1] [s⁻¹] | kon [1] [M⁻¹ s⁻¹] | EC50 [2] [µg/mL] | IC50 (GDF15-mFC protein [3]) [µg/mL] | EC50 [4] [µg/mL] | IC50 (GDF15-mFC protein [5]) [µg/mL] | EC50 [6] [µg/mL] | EC50 [7] [µg/mL] | EC50 (cynoGDF15-mFC) [µg/mL] | OD450.Max (cynoGDF15-mFC) [OD450]
Ponsegromab (antibody, V domains shown) VH: QVQLVQSGAEVKKPGSSVKVSCKASGYTFSSYNIDWVRQAPGQGLEWMGGINPIFGTAFYNQKFQGRVTITADESTSTAYMELSSLRSEDTAVYYCAREAITTVGAMDHWGQGTLVTVSS VL: EIVLTQSPATLSLSPGERATLSCRTSQSVHNYLAWYQQKPGQAPRLLIYDASTRADGIPARFSGSGSGTDFTLTISSLEPEDFAVYYCQQFWSWPWTFGQGTKVEIKR | – | – | – | – | – | – | – | – | – | 0.0697 | 1.07
A5 (murine anti-50G3) (antibody, V domains shown, Purified murine hybridoma antibody) VH: QVTLKESGPGILKPSQTLSLTCSFSGFSLSTSGMGVGWIRQPSGKGLEWLAHIWWNDDKYYNPSLKSHLTISKDTSRNQVFLMITSVDTADTATYYCARGAYDFFDYWGQGTTLTVSS VL: DIVMTQAQNFMSTSVGDRVSVTCKASQNVDTNVAWYQQKPGQSPKALIYSASYRYSGVPDRFTGSGSGTDFTLTISNVQSDDLADYFCQQYNTYPYTFGGGTKLEIK | 162 | 0.000328 | 2.02e+06 | – | – | – | 0.232 | 0.0556 | 0.077 | – | –
A4 (murine anti-2A2) (antibody, V domains shown, Purified murine hybridoma antibody) VH: QVTLKESGPGILQPSQTLSLTCSFSGFSLTTSGMGVDWIRQSSGKGLEWLAHIYWDDDKRYNPSLKSRLTISKDTSSNQVFLKITSVDTADTATYYCARRAWDAMDYWGQGTSFTVSS VL: DIVMTQAQKFMSTSVGDRVSVTCKARQNVGTNVAWYQQKPGQSPKALIYSASYRYSGVPDRFTGSGSGTDFTLTISNVQSEDLAEYFCQQYNSYPYTFGGGTKLEIK | 146 | 0.000214 | 1.47e+06 | 0.0827 | 0.0898 | 0.046 | – | – | – | – | –
A1 (murine anti-53E5) (antibody, V domains shown, Purified murine hybridoma antibody) VH: QVQLKESGPGILQPSQTLSLTCSFSGFSLSTSGMGVGWIRQPSGKGLEWLAHILWDDVKRYNPALKSRLTISKDSSNSQIFLKIASVDTADTATYYCVQMAWDWFAYWGQGTLVTVSA VL: DIVMTQAQKFMSTSVEDRVSVTCKASQNVDTNVAWYQQKPGQSPKALIYSASYRSSGVPDRFTGSGSGTDFTLTISNVQSEDLAEYFCQQYHSYPTFGGGTKLEIK | 85 | 0.000194 | 2.29e+06 | – | – | – | 0.186 | 0.0455 | 0.0454 | – | –
A2 (murine anti-53A8) (antibody, V domains shown, Purified murine hybridoma antibody; also called murine antibody 53A8) VH: QVQLKESGPGILQPSQTLSLTCSFSGFSLSTSGMGVGWIRQPSGKGLEWLAHIRWDDVKRYNPALKSRLTISKDTSSSQIFLKIASVDTADTATYYCAQMAWDWFAYWGQGTLVTVSA VL: DIVMTQAQKFMSTSVGDRVSVTCKASQNVDTDVAWYQQKPGQSPKALIYSASYRYSGVPDRFTGSGSGTDFTLTITNVQSEDLAEYFCHQYNSYPTFGGGTKLEIK | 140 | 0.000318 | 2.28e+06 | – | – | – | 0.205 | 0.0378 | 0.0677 | – | –

More lines, in order of falling Kd [1], values ahead:

Kd [1] [pM] | koff [1] [s⁻¹] | kon [1] [M⁻¹ s⁻¹] | EC50 [2] [µg/mL] | IC50 (GDF15-mFC protein [3]) [µg/mL] | EC50 [4] [µg/mL] | IC50 (GDF15-mFC protein [5]) [µg/mL] | EC50 [6] [µg/mL] | EC50 [7] [µg/mL] | EC50 (cynoGDF15-mFC) [µg/mL] | OD450.Max (cynoGDF15-mFC) [OD450] | Binder
97.2 | 0.000217 | 2.24e+06 | – | – | – | 0.213 | 0.0602 | 0.0555 | – | – | A6 (murine anti-53D10) (antibody, V domains shown, Purified murine hybridoma antibody) VH: QVTLKESGPGIVQPSQPFRLTCTFSGFSLSTSGIGITWIRQPSGKGLEWLATIWWDDDNRYNPSLKSRLTVSKDTSNNQAFLNIITVETADTAIYYCVQSAWDWFAYWGQGTLVTVSA VL: DIVMTQSQKFMSTSVGDRVSVTCKASQNVGTNVAWYQQKSGQSPKALIYSASYRNSGVPDRFTGSGSGTDFTLTISNVESEDLAEYFCQQYNSHPVTFGGGTKLEIK
97 | 0.000117 | 1.2e+06 | 0.0258 | 0.14 | 0.0296 | 0.198 | 0.0313 | 0.0146 | – | – | AV380-mIgG1 (antibody, also called positive control antibody AV380-mIgG1) heavy: EVLLQQSGPELVKPGASVKIPCKASGYTFTDYNMDWVKQSHGKSLEWIGQINPNNGGIFFNQKFKGKATLTVDKSSNTAFMEVRSLTSEDTAVYYCAREAITTVGAMDYWGQGTSVTVSSAKTTPPSVYPLAPGSAAQTNSMVTLGCLVKGYFPEPVTVTWNSGSLSSGVHTFPAVLQSDLYTLSSSVTVPSSTWPSETVTCNVAHPASSTKVDKKIVPRDCGCKPCICTVPEVSSVFIFPPKPKDVLTITLTPKVTCVVVDISKDDPEVQFSWFVDDVEVHTAQTQPREEQFNSTFRSVSELPIMHQDWLNGKEFKCRVNSAAFPAPIEKTISKTKGRPKAPQVYTIPPPKEQMAKDKVSLTCMITDFFPEDITVEWQWNGQPAENYKNTQPIMDTDGSYFVYSKLNVQKSNWEAGNTFTCSVLHEGLHNHHTEKSLSHSPGK light: DIQMTQSPASLSASVGETVTITCRTSENLHNYLAWYQQKQGKSPQLLVYDAKTLADGVPSRFSGSGSGTQYSLKINSLQPEDFGSYYCQHFWSSPYTFGGGTKLEIKRADAAPTVSIFPPSSEQLTSGGASVVCFLNNFYPKDINVKWKIDGSERQNGVLNSWTDQDSKDSTYSMSSTLTLTKDEYERHNSYTCEATHKTSTSPIVKSFNRNEC
89.5 | 7.2e-05 | 805000 | 0.157 | 0.0916 | 0.109 | – | – | – | – | – | A3 (murine anti-34G9) (antibody, V domains shown, Purified murine hybridoma antibody) VH: QVQLKESGPGILQPSQTLSLTCSFSGFSLNTAGMTVGWIRQPSGKGLEWLAHIWWNDDKYYNPALKSRLTISKDTSNNQIFLEIASVVTADTATYYCTRIATMNYAMDYWGQGTSVTVSS VL: DIVMTQAPASLAVSLGQRATISCRASQSVSTSSFSYMHWYQQKPGQPPKLLIKYASNLESGVPARFSGSGSGTDFTLNIHPVEEEDTATYYCQHSWEIPYTFGGGTKLEIK
